This note sets out measurements from article PMC12629592, “MCAK recognizes the nucleotide-dependent feature at growing microtubule ends” (eLife, 2025).

The target of data set [1] is tubulin from porcine brain, polymerised into microtubules (porcine) (UniProt P02550). In words: single-molecule TIRF microscopy; single-molecule localisation at growing microtubule ends (tubulin 12 μM): 1 nM GFP-MCAK with 1 mM ATP, 10 nM EB1-GFP or 1 nM XMAP215-GFP, each alone; apparent constants.
Data set [2] concerns the molecule itself. In words: SEC; Superose 6 Increase 5/150 GL; BRB80 with 50 mM KCl and 1 mM ATP. A general note: In gel filtration, larger molecules generally elute earlier.
The target of data set [3] is tubulin from porcine brain, polymerised into microtubules (porcine) (UniProt P02550). Kind of data set: single-molecule TIRF microscopy; binding events on the lattice of dynamic microtubules (tubulin 16 μM); GFP-MCAK with 1 mM AMPPNP.
Data set [4] shares this target. In words: single-molecule TIRF microscopy; binding events at the minus-ends of dynamic microtubules; GFP-MCAK, 1 mM ATP; BRB80 + 50 mM KCl, 35°C; apparent constants, per tubulin dimer.
Data set [5] has the same target. Kind of data set: single-molecule TIRF microscopy; binding events at the growing plus-end of dynamic microtubules (tubulin 16 μM); GFP-MCAK with 1 mM ADP; apparent constants, per tubulin dimer.
For data set [6] the target is unchanged. Kind of data set: single-molecule TIRF microscopy; binding events at the growing plus-end of dynamic microtubules (tubulin 16 μM); GFP-MCAK with 1 mM AMPPNP; apparent constants, per tubulin dimer.
The target is the same in data set [7]. In words: single-molecule TIRF microscopy; binding events at the growing plus-end of dynamic microtubules (tubulin 16 μM); GFP-MCAK without nucleotide (APO); apparent constants, per tubulin dimer.
Data set [8] has the same target. Kind of data set: single-molecule TIRF microscopy; single-molecule localisation at growing microtubule ends (tubulin 12 μM): 1 nM GFP-MCAK with 1 mM ATP, 10 nM EB1-GFP or 1 nM XMAP215-GFP, each alone; apparent constants. This is another data set of the same source.
For data set [9] the target is unchanged. In words: single-molecule TIRF microscopy; binding events on the lattice of dynamic microtubules (tubulin 16 μM) grown from immobilised GMPCPP seeds; 10 nM GFP-MCAK (10 nM K524A, 30 nM V298S); 1 mM ATP; BRB80 + 50 mM KCl, 35°C; apparent constants, per tubulin dimer.
The target is the same in data set [10]. In words: single-molecule TIRF microscopy; binding events at the growing plus-end (end region 162 nm FWHM) of dynamic microtubules (tubulin 16 μM) grown from immobilised GMPCPP seeds; 10 nM GFP-MCAK (10 nM K524A, 30 nM V298S); 1 mM ATP; BRB80 + 50 mM KCl, 2 mM GTP, 35°C; apparent constants, per tubulin dimer.

The term stoichiometry N denotes the number of molecules, sites or subunits per partner or assembly. Usually kon stands for a measure of how fast the partners come together.

“EB1-GFP (from UniProt Q15691 1-268) (natural protein)”: in data set [1], the Kd is 722 µM.

B1: GFP-MCAK (mitotic centromere-associated kinesin, wild type) (enzyme, UniProt Q99661 1-725, looked up)
chain: MAMDSSLQARLFPGLAIKIQRSNGLIHSANVRTVNLEKSCVSVEWAEGGATKGKEIDFDDVAAINPELLQLLPLHPKDNLPLQENVTIQKQKRRSVNSKIPAPKESLRSRSTRMSTVSELRITAQENDMEVELPAAANSRKQFSVPPAPTRPSCPAVAEIPLRMVSEEMEEQVHSIRGSSSANPVNSVRRKSCLVKEVEKMKNKREEKKAQNSEMRMKRAQEYDSSFPNWEFARMIKEFRATLECHPLTMTDPIEEHRICVCVRKRPLNKQELAKKEIDVISIPSKCLLLVHEPKLKVDLTKYLENQAFCFDFAFDETASNEVVYRFTARPLVQTIFEGGKATCFAYGQTGSGKTHTMGGDLSGKAQNASKGIYAMASRDVFLLKNQPCYRKLGLEVYVTFFEIYNGKLFDLLNKKAKLRVLEDGKQQVQVVGLQEHLVNSADDVIKMIDMGSACRTSGQTFANSNSSRSHACFQIILRAKGRMHGKFSLVDLAGNERGADTSSADRQTRMEGAEINKSLLALKECIRALGQNKAHTPFRESKLTQVLRDSFIGENSRTCMIATISPGISSCEYTLNTLRYADRVKELSPHSGPSGEQLIQMETEEMEACSNGALIPGNLSKEEEELSSQMSSFNEAMTQIRELEEKAMEELKEIIQQGPDWLELSEMTEQPDYDLETFVNKAESALAQQAKHFSALRDVIKALRLAMQLEEQASRQISSKKRPQ
notes: MCAK (mitotic centromere-associated kinesin, kinesin-13); GFP-MCAK monomer printed as 110 kDa; Dimer by size-exclusion chromatography; Used with 1 mM ATP, AMPPNP, ADP or without nucleotide (APO); Purification adapted from Helenius et al., 2006; The printed residue numbers (K524, V298, T537) and the 110 kDa mass fit whole human MCAK (surmised); also called MCAK‧ATP; MCAK‧AMPPNP; source: Sf9, …
Take B1: in [2], the “stoichiometry N” value was determined as 2. This molecule also showed a dwell time in [3] of 1.46 s. For the same molecule, in data set [4], the Kd amounted to 40 µM and the RE/L (kon at the end over kon on the lattice) was found to be 13. Besides, in data set [5], the Kd stood at 163 µM, the RE/L (kon at the plus-end over kon on the lattice) amounted to 2 and the dwell time is 0.46 s. Moreover, in data set [6], the Kd amounted to 61 µM, the RE/L (kon at the plus-end over kon on the lattice) was 11 and the dwell time came to 3.32 s. For the same molecule, in data set [7], the Kd turned out to be 1.8 µM, the RE/L (kon at the plus-end over kon on the lattice) amounted to 2 and the dwell time worked out at 1.89 s. In [8], the dwell time of distally distributed molecules at the growing end was found to be 0.8 s and the dwell time of proximally distributed molecules at the growing end was 0.7 s. Moreover, in data set [9], the Kd was found to be 1060 µM, the dwell time was determined as 0.62 s and the kon was 2800 M⁻¹ s⁻¹. Moreover, in data set [10], the Kd came out at 69 µM; the dwell time came to 0.75 s; the effective dissociation constant (the microtubule end taken as one multivalent receptor, end length 160 nm) amounted to 260 nM; the kon was found to be 22600 M⁻¹ s⁻¹.
